Experimental data: patent US20110002963A1 (IMMATICS BIOTECHNOLOGIES, published 2011)

B1: MET-005 (peptide)
peptide: TFSYVDPVITSISPKYG
notes: also called IMA-MET-005; full-length MET-005

The binders below were run against T1, MHC molecule coded by the HLA-A*0201 allele (recombinant HLA-A*0201 heavy chain refolded with beta-2 … (human)) (assay: ELISA-based MHC refolding assay).

**Q.** Does KVFAGIPTV (also called IMA-PTP-005) [PTP-005] bind?
**A.** binds

**Q.** Does GLWHHQTEV (also called IMA-NRCAM-001) [NRCAM-001] bind?
**A.** binds

**Q.** Does ALWAWPSEL (also called IMA-BCA-002) [BCA-002] bind?
**A.** binds

**Q.** Does AMTQLLAGV (also called IMA-TNC-001) [TNC-001] bind?
**A.** binds

**Q.** Does NLDTLMTYV (also called IMA-NLGN4X-001) [NLGN4X-001] bind?
**A.** binds

**Q.** Does AIIDGVESV (also called IMA-PTP-003) [PTP-003] bind?
**A.** binds

**Q.** Does LTFGDVVAV (also called IMA-FABP7-001) [FABP7-001] bind?
**A.** binds

**Q.** Does SLWAGVVVL (also called IMA-CHI-001) [CHI-001] bind?
**A.** binds

**Q.** Does KIQEILTQV (also called IMA-IGF2BP3-001) [IGF2BP3-001] bind?
**A.** binds

The binders below were run against T1, MHC molecule coded by the HLA-A*0201 … (assay: tetramer production / HLA-A*0201 refolding with peptide).

**Q.** Does B1 bind?
**A.** no binding

Each binder was assayed against T1, MHC molecule coded by the HLA-A*0201 … (assay: ELISA-based MHC refolding assay, recombinant HLA-A*0201 heavy chain + b2m + graded peptide).

**Q.** Which Kd does the source give for YVDPVITSI (also called MET-005 derived MET-001) [MET-001] here?
**A.** 0.14 nM

**Q.** Which Kd does the source give for TMLARLASA (also called IMA-CSP-001) [CSP-001] here?
**A.** 2.05 nM
